As usually defined, the Tm is the temperature at which the thermal transition is half complete.

We go through two proteins from FireProtDB (doi:10.1021/bi00107a010).

First the molecules themselves.
B1: wild type, Q40059 (protein)
chain: MSSMEKKPEGVNIGAGDRQNQKTEWPELVGKSVEEAKKVILQDKPAAQIIVLPVGTIVTMEYRIDRVRLFVDRLDNIAQVPRVG
B2: Subtilisin-chymotrypsin inhibitor-2A wild type, P01053 (protein)
chain: B1 chain with M4V, I13T, Q19H, Q21L, A46E, R73K

Residue numbers refer to the chain shown, from its start.

For the first data set the following is noted: Hordeum vulgare; pH 2.2; 25 °C; Thermal; DSC; glycine-HCl 10 mM; reversible: yes; whole UniProt chain shown.
In the case of B1, the “heat capacity change of unfolding” value came to 0.79 kcal/mol/K and the unfolding free energy was 1.94 kcal/mol.

The same data set, now with this note: Hordeum vulgare; pH 2.5; 25 °C; Thermal; DSC; glycine-HCl 10 mM; reversible: yes; whole UniProt chain shown.
As for B1, the “heat capacity change of unfolding” value is 0.79 kcal/mol/K and the unfolding free energy stood at 2.79 kcal/mol.

Staying with this data set, now noted: Hordeum vulgare; pH 2.8; 25 °C; Thermal; DSC; glycine-HCl 10 mM; reversible: yes; whole UniProt chain shown.
With B1, the “heat capacity change of unfolding” value worked out at 0.79 kcal/mol/K and the unfolding free energy worked out at 3.73 kcal/mol.

Staying with this data set, now noted: Hordeum vulgare; pH 3.2; 25 °C; Thermal; DSC; glycine-HCl 10 mM; reversible: yes; whole UniProt chain shown.
As to B1, the “heat capacity change of unfolding” value stood at 0.79 kcal/mol/K and the unfolding free energy was determined as 5.2 kcal/mol.

The same data set, now with this note: Hordeum vulgare; pH 3.5; 25 °C; Thermal; DSC; glycine-HCl 10 mM; reversible: yes; whole UniProt chain shown.
B1: the “heat capacity change of unfolding” value turned out to be 0.79 kcal/mol/K and the unfolding free energy turned out to be 6.48 kcal/mol.

The data set is the same for the next values; noted with them: Hordeum vulgare; pH 2.2; Thermal; DSC; glycine-HCl 10 mM; reversible: yes; whole UniProt chain shown.
For the protein B2, the melting temperature (Tm) was determined as 41.6 °C, the “unfolding enthalpy (calorimetric)” value stood at 43.5 kcal/mol and the “unfolding enthalpy (van 't Hoff)” value came to 42.3 kcal/mol.

Still in this data set, the particulars now being: Hordeum vulgare; pH 2.5; Thermal; DSC; glycine-HCl 10 mM; reversible: yes; whole UniProt chain shown.
Take B2: the Tm was found to be 47.2 °C, the “unfolding enthalpy (calorimetric)” value came to 49.2 kcal/mol and the “unfolding enthalpy (van 't Hoff)” value was 45.5 kcal/mol.

The same data set, now with this note: Hordeum vulgare; pH 2.8; Thermal; DSC; glycine-HCl 10 mM; reversible: yes; whole UniProt chain shown.
For B2, the Tm amounted to 55.2 °C, the “unfolding enthalpy (calorimetric)” value turned out to be 52.8 kcal/mol and the “unfolding enthalpy (van 't Hoff)” value stood at 51.1 kcal/mol.

The data set is the same for the next values; noted with them: Hordeum vulgare; pH 3.2; Thermal; DSC; glycine-HCl 10 mM; reversible: yes; whole UniProt chain shown.
Turning to B2, the melting temperature (Tm) worked out at 64 °C, the “unfolding enthalpy (calorimetric)” value came out at 61 kcal/mol and the “unfolding enthalpy (van 't Hoff)” value was determined as 60.8 kcal/mol.

The data set is the same for the next values; noted with them: Hordeum vulgare; pH 3.5; Thermal; DSC; glycine-HCl 10 mM; reversible: yes; whole UniProt chain shown.
As for B2, the Tm came out at 71 °C, the “unfolding enthalpy (calorimetric)” value amounted to 67.5 kcal/mol and the “unfolding enthalpy (van 't Hoff)” value worked out at 68.8 kcal/mol.
